In US20190233528A1 (published 2019):

What was measured:
[1] = target: T1, human CD70 expressed on parental (WT) Jurkat cells (human, UniProt P32970 1-193); experiment: cell-based or functional assay
T1 sequence: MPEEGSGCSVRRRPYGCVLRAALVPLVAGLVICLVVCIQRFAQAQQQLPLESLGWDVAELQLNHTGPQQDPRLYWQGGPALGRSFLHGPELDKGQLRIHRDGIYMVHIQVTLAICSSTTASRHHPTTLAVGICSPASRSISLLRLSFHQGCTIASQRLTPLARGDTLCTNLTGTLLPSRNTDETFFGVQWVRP

[2] = target: T2, recombinant biotinylated human CD70 protein (human) (UniProt P32970); experiment: flow cytometry: CAR-transduced Jurkat cells incubated with recombinant biotinylated human CD70, streptavidin-PE; percent of cells binding
T2 sequence (chain, biotinylated (site not stated)): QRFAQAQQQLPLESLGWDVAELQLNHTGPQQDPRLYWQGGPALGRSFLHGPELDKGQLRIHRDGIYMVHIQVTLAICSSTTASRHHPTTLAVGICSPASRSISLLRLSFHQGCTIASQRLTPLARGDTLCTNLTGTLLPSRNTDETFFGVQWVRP

[3] = target: T3, recombinant biotinylated human CD70 protein (human, UniProt P32970 39-193, biotinylated (site not stated)); experiment: as above
T3 construct: also called recombinant biotinylated hCD70 protein
T3 sequence: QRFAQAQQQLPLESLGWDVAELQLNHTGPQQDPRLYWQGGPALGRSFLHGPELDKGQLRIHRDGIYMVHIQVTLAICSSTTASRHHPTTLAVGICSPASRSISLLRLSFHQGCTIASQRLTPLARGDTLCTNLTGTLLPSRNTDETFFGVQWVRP
Description: On Day 5, transduced cells were stained with human anti-CD69 antibody conjugated to PE-Cy7 and acquired on a flow cytometer to obtain percentage of CD69+ population for each CAR. […] Activation ratios (WT activation/KO activation) and protein binding were used to rank CARs.
Activation ratio and protein binding of hybridoma CARs were determined in the Jurkat screen and used for in vitro characterization of CARs. Activation ratio was determined by calculating the ratio of the percentage of CD69 expression on WT Jurkat cells transduced with CD70 CAR (WT) to that on CD70 knockout Jurkat cells transduced with CD70 CAR (KO). A higher activation ratio indicates target-dependent activation. […] Protein binding values indicate the percentage of CD3+ CAR T cells that bind to human CD70 protein.

Row | Binder | Activation ratio (WT/KO) [1] | Protein binding (%) [2] [%] | Protein binding (%) [3] [%]
1 | 42C3 CD70-specific CAR (other) EVQLVESGGGLVQPGGSLRLSCAASGFTFRNSWMSWVRQAPGKGLEWVANIKRDGSEKYYVDSVKGRFTISRDNAKNSLYLQMNSLRAEDTAVYYCARDQTGSFDYWGQGTLVTVSSGGGGSGGGGSGGGGSGGGGSDVVMTQSPLSLPVTLGQPASISCRSSQSLVYSDENTYLNWFQQRPGQSLRRLIYQVSNRDSGVPDRFSGSGSGTDFTLKISRVEAEDVGVYFCMQGTYWPPTFGGGTKVEIKTTTPAPRPPTPAPTIASQPLSLRPEACRPAAGGAVHTRGLDFACDIYIWAPLAGTCGVLLLSLVITLYCKRGRKKLLYIFKQPFMRPVQTTQEEDGCSCRFPEEEEGGCELRVKFSRSADAPAYQQGQNQLYNELNLGRREEYDVLDKRRGRDPEMGGKPRRKNPQEGLYNELQKDKMAEAYSEIGMKGERRRGKGHDGLYQGLSTATKDTYDALHMQALPPR | 5.25 | 1.48 | 
2 | 45F11 CD70-specific CAR (other) QVQLRGSGPGLVKPSETLSLTCTVSDDSISVYYWSWIRQPAGKGLEWIGRVYSSGNINYNPSLESRVTMSVDTSKSRFSLNLSSVTAADTAVYYCARGLDAFDIWGQGTMVTVSSGGGGSGGGGSGGGGSGGGGSEIVMTQSPATLSMSLGERATLSCRASQSVSSSLAWYQQKPGQAPRLLIYGASTRATGIPARFGGSGSGTEFTLTISSLQSEDFAVYYCQQYINWPHFGGGTKVEIKTTTPAPRPPTPAPTIASQPLSLRPEACRPAAGGAVHTRGLDFACDIYIWAPLAGTCGVLLLSLVITLYCKRGRKKLLYIFKQPFMRPVQTTQEEDGCSCRFPEEEEGGCELRVKFSRSADAPAYQQGQNQLYNELNLGRREEYDVLDKRRGRDPEMGGKPRRKNPQEGLYNELQKDKMAEAYSEIGMKGERRRGKGHDGLYQGLSTATKDTYDALHMQALPPR | 6.67 | 1.29 | 
3 | 72C2 CD70-specific CAR (other) QVQLVQSGAEVKKPGSSVKVSCEASGGTFITYAISWVRQAPGQGLEWMGGIIPFFGTANYAQKFQGRVTITADKSTSTASMELRSLRSEDTAMYYCAQWELFFFDFWGQGTPVTVSSGGGGSGGGGSGGGGSGGGGSEIVMTQSPDTLSVSPGERAILSCRASQSVSSNLAWYQQKPGQAPRLLIYSASTRASGIPARFSGSGSGTEFTLSISSLQSEDFAVYYCQQYDNWPPLTFGGGTKVEIKTTTPAPRPPTPAPTIASQPLSLRPEACRPAAGGAVHTRGLDFACDIYIWAPLAGTCGVLLLSLVITLYCKRGRKKLLYIFKQPFMRPVQTTQEEDGCSCRFPEEEEGGCELRVKFSRSADAPAYQQGQNQLYNELNLGRREEYDVLDKRRGRDPEMGGKPRRKNPQEGLYNELQKDKMAEAYSEIGMKGERRRGKGHDGLYQGLSTATKDTYDALHMQALPPR | 6.18 | 0.09 | 
4 | 10H10 CD70-specific CAR (other, Chimeric antigen receptor on transduced Jurkat cells; the signal peptide is left out) EVQLVESGGGLVQPGGSLRLSCAVSGFTFSNHNIHWVRQAPGKGLEWISYISRSSSTIYYADSVKGRFTISRDNAKNSLYLQMNSLRDEDTAVYYCARDHAQWYGMDVWGQGTTVTVSSGGGGSGGGGSGGGGSGGGGSDIQMTQSPSSVSASVGDRVTITCRASQGISSWLAWYQQKPGKAPKVLIYAASSLQSGVPSRFSGSGSGTDFTLTISSLQPEDFATYYCQQAFSFPFTFGPGTKVDIKTTTPAPRPPTPAPTIASQPLSLRPEACRPAAGGAVHTRGLDFACDIYIWAPLAGTCGVLLLSLVITLYCKRGRKKLLYIFKQPFMRPVQTTQEEDGCSCRFPEEEEGGCELRVKFSRSADAPAYQQGQNQLYNELNLGRREEYDVLDKRRGRDPEMGGKPRRKNPQEGLYNELQKDKMAEAYSEIGMKGERRRGKGHDGLYQGLSTATKDTYDALHMQALPPR | 7.32 |  | 17.9
5 | 17G6 CD70-specific CAR (other, Chimeric antigen receptor on transduced Jurkat cells; the signal peptide is left out) EVQLVESGGGLVQPGGSLRLSCVASGFTFSSYWMSWVRQAPGKGLEWVASIKQDGSEKYYVDSVKGRFTISRDNAKNSVYLQMNSLRAEDTGVYYCAREGVNWGWRLYWHFDLWGRGTLVTVSSGGGGSGGGGSGGGGSGGGGSDIVMTQSPDSLAVSLGERATINCKSSQSVLYSYNNKNYVAWYQQKPGQPPNLLIFWASTRESGVPDRFSGSGSGTDFTLTISSLQAEDVAVYYCQQYYSTLTFGGGTKVEIKTTTPAPRPPTPAPTIASQPLSLRPEACRPAAGGAVHTRGLDFACDIYIWAPLAGTCGVLLLSLVITLYCKRGRKKLLYIFKQPFMRPVQTTQEEDGCSCRFPEEEEGGCELRVKFSRSADAPAYQQGQNQLYNELNLGRREEYDVLDKRRGRDPEMGGKPRRKNPQEGLYNELQKDKMAEAYSEIGMKGERRRGKGHDGLYQGLSTATKDTYDALHMQALPPR | 6.84 |  | 37.6
6 | 64F9 CD70-specific CAR (other, Chimeric antigen receptor on transduced Jurkat cells; the signal peptide is left out) EVQLLESGGGLVQPGESLRLSCEVSGFTFTSYAMSWVRQVPGKGLEWVSIISGVAFTTYYADSVKGRFTISRDHSKNTLYLQMNGLRAEDTAVYYCVKVDGEVYWGQGTLVTVSSGGGGSGGGGSGGGGSGGGGSDIQMTQSPSSLSASVGDRVTITCQASQDISNYLNWYQQKPGKAPKILIYGASNLETGVPSRFSGSGSGTDFTFAISSLQPEDVATYYCQQYDNFPITFGQGTRLEIKTTTPAPRPPTPAPTIASQPLSLRPEACRPAAGGAVHTRGLDFACDIYIWAPLAGTCGVLLLSLVITLYCKRGRKKLLYIFKQPFMRPVQTTQEEDGCSCRFPEEEEGGCELRVKFSRSADAPAYQQGQNQLYNELNLGRREEYDVLDKRRGRDPEMGGKPRRKNPQEGLYNELQKDKMAEAYSEIGMKGERRRGKGHDGLYQGLSTATKDTYDALHMQALPPR | 3.89 |  | 6.24
7 | 4F11 CD70-specific CAR (other, Chimeric antigen receptor on transduced Jurkat cells; the signal peptide is left out) QVTLKESGPVLVKPTETLTLTCTVSGFSLSNARMGVTWIRQPPGKALEWLAHIFSNDEKSYSTSLKSRLTISKDTSKTQVVLTMTNMDPVDTATYYCARIRDYYDISSYYDYWGQGTLVSVSSGGGGSGGGGSGGGGSGGGGSDIQMTQSPSAMSASVGDRVTITCRASQDISNYLAWFQQKPGKVPKRLIYAASSLQSGVPSRFSGSGSGTEFTLTISSLLPEDFATYYCLQLNSFPFTFGGGTKVEINTTTPAPRPPTPAPTIASQPLSLRPEACRPAAGGAVHTRGLDFACDIYIWAPLAGTCGVLLLSLVITLYCKRGRKKLLYIFKQPFMRPVQTTQEEDGCSCRFPEEEEGGCELRVKFSRSADAPAYQQGQNQLYNELNLGRREEYDVLDKRRGRDPEMGGKPRRKNPQEGLYNELQKDKMAEAYSEIGMKGERRRGKGHDGLYQGLSTATKDTYDALHMQALPPR | 11.9 |  | 47.1
